According to US20180207276A1, “MODIFIED THERAPEUTIC AGENTS AND COMPOSITIONS THEREOF” (THE CALIFORNIA INSTITUTE FOR BIOMEDICAL RESEARCH, priority 2015, published 2018):
Positions of bridges follow the written chain, without caps; N, C: chain ends. Non-standard residues stand in square brackets, D forms with d. Primed or numbered codes have the meaning given here. Chains are numbered I, II in the order given. No end group written: not given here. *: point of attachment. FA2″ = lipid moiety from Br-FA2: acetamide, two PEG2-propionic acid units, Lys and octadecanedioic acid; X1 = O=C(O)CCCCCCCCCCCCCCCCC(=O)N[C@@H](CCCCNC(=O)CCOCCOCCNC(=O)CCOCCOCCNC(=O)C*)C(=O)O; X2 = O=C(O)CCCCCCCCCCCCCCCCC(=O)N[C@@H](CCCCn1cc(COCCOCCOCCOCCOCCNC(=O)C*)nn1)C(=O)O; X3 = CCCCCCCCCCCCCCCCCC(=O)N[C@@H](CCCCNC(=O)CCOCCOCCOCCOCCOCCNC(=O)C*)C(=O)O; X4 = CCCCCCCCCCCCCC(=O)N[C@@H](CCCCNC(=O)CCOCCOCCOCCOCCOCCNC(=O)C*)C(=O)O; FA183 = acetamide-PEG5-Lys-octadecanedioic acid; ALK = (PEG)5-bromo-alkyne, S-alkylating Cys; FA182 = acetamide-PEG5-Lys-myristic acid; FA186 = acetamide-PEG5-Lys-stearic acid; pGlu = O=C1CC[C@@H](C(=O)O)N1; FA155 = not defined here; FA2 = not defined here

T1: LGR7 (Homo sapiens, UniProt Q9HBX9)
T1 construct: expressed in transfected cells; host or cells: HEK293T cells stably expressing recombinant LGR7, transduced with CRE-Luc lentivirus
T1 sequence (Q9HBX9 1-757): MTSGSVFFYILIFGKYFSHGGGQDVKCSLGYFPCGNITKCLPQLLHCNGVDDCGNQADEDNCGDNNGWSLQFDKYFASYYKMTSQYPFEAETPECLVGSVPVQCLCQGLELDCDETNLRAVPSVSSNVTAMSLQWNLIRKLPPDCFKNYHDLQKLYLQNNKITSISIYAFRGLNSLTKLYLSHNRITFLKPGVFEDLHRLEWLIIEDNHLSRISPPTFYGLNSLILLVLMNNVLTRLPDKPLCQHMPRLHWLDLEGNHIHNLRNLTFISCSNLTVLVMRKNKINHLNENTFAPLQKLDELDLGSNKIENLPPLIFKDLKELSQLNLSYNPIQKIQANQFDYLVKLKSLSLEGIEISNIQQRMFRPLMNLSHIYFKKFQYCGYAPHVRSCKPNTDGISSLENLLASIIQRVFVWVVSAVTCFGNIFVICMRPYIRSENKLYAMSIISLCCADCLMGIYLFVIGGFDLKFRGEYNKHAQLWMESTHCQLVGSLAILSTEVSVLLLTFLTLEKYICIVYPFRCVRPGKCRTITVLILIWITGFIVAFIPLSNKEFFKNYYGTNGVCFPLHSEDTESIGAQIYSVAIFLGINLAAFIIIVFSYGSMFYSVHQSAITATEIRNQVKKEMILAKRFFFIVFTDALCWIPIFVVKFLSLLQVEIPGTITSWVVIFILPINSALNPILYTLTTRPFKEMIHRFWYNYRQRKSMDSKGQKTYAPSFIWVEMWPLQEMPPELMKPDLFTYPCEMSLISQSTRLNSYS

T2: LGR7 (relaxin 2 receptor), recombinant, stably expressed in HEK293T cells with a CRE-Luc reporter (UniProt Q9HBX9 1-757, limits assumed)
T2 sequence (looked up): T1 sequence (Q9HBX9 1-757)

B1: Relaxin-B:D1A (ligand)
chain 1: ASWMEEVIKLCGRELVRAQIAICGMSTWS
chain 2: QLYSALANKCCHVGCTKRSLARFC
modifications: ends and bridges not checked; cysteine pairing not given here
B2: Relaxin-B:D1A-A:Q1-L2C-FA155 (ligand)
chain 1: ASWMEEVIKLCGRELVRAQIAICGMSTWS
chain 2: QC(FA155)YSALANKCCHVGCTKRSLARFC
modifications: ends and bridges not checked
B3: Relaxin-wt (ligand)
chain 1: DSWMEEVIKLCGRELVRAQIAICGMSTWS
chain 2: QLYSALANKCCHVGCTKRSLARFC
modifications: ends and bridges not checked; cysteine pairing not given here
B4: Relaxin-B:D1A-A:Q1-L2C-FA183 (ligand)
chain 1: ASWMEEVIKLCGRELVRAQIAICGMSTWS
chain 2: QC(FA183)YSALANKCCHVGCTKRSLARFC
modifications: ends and bridges not checked
B5: Relaxin-B:D1A-A:Q1-L2C-FA186 (ligand)
chain 1: ASWMEEVIKLCGRELVRAQIAICGMSTWS
chain 2: QC(FA186)YSALANKCCHVGCTKRSLARFC
modifications: ends and bridges not checked
B6: Relaxin-B:D1A-A:Q1:V13C-FA2 (ligand)
chain 1: ASWMEEVIKLCGRELVRAQIAICGMSTWS
chain 2: QLYSALANKCCHC(FA2)GCTKRSLARFC
modifications: ends and bridges not checked
B7: Relaxin-B:D1A-A:Q1-L2C-FA182 (ligand)
chain 1: ASWMEEVIKLCGRELVRAQIAICGMSTWS
chain 2: QC(FA182)YSALANKCCHVGCTKRSLARFC
modifications: ends and bridges not checked
B8: Relaxin-B:D1A-A:Q1-L2C-ALK (ligand)
chain 1: ASWMEEVIKLCGRELVRAQIAICGMSTWS
chain 2: QC(ALK)YSALANKCCHVGCTKRSLARFC
modifications: ends and bridges not checked
B9: Relaxin-B:D1A-A:pQ1-L2C-FA2 (ligand)
chain 1: ASWMEEVIKLCGRELVRAQIAICGMSTWS
chain 2: XCYSALANKCCHVGCTKRSLARFC
modifications: pyroglutamate (pQ) at position 1; Cys 2 S-alkylated with FA2 (from Br-FA2, Example 6)
B10: Relaxin-B:D1A-A:Q1-L2C-FA2 (ligand)
chain 1: ASWMEEVIKLCGRELVRAQIAICGMSTWS
chain 2: QC(FA2″)YSALANKCCHVGCTKRSLARFC
modifications: ends and bridges not checked

Experiments:
LGR7 = biological target: T1, LGR7; experiment: LGR7 CRE-Luc reporter gene assay (bioactivity of relaxin peptides); type: cell-based; conditions: HEK293T cells expressing LGR7 and CRE-Luc; for Activity, fold drop compared to relaxin: fold drop relative to relaxin; for EC50: 18 hours incubation, luciferase readout
Experimental: Relaxin 2 signals through leucine-rich repeat-containing GPCRs (i.e LGR7 (RFXR1)). The bioactivity of wild-type relaxin peptides was determined based on the stimulation of adenylate cyclase activity in HEK293T cells stably expressing recombinant LGR7. Stable LGR7 expressing cells were maintained in Dulbecco's modified Eagle's medium/F-12 media supplemented with 200 ng/ml Zeocin (Invitrogen). A cyclic AMP responsive element driven luciferase (CRE-Luc) reporter line was generated by lentiviral transduction of these LGR7 expressing HEK293T cells with CRE-Luc lentivirus (Qiagen) and selected with puromycine (2 μg/mL) for two weeks. A reporter gene assay was used to detect cAMP levels and LGR7 activation by relaxin.
Assay detail: HEK293T cells expressing LGR7 and CRE-Luc are seeded at a density of 5×10^3 cells per well in 50 μL of Dulbecco's modified Eagle's medium/F-12 medium containing 10% FBS in 384-well solid bottom white plates. Cells are pre-incubated at 37° C. overnight. Different concentrations of relaxin peptides (from 0.01 nM to 1000 nM) were added in triplicate, incubated for 18 hours and luciferase activity was detected by adding […], of Bright Glo (Promega). Luminescence was recorded on Envision (Perkin Elmer). EC50 is calculated after non-linear curve fitting (see FIG. 2 for relaxin H2 dose response curve).

[1] = Mouse in vivo PK study for half-life extension; parameters: species or system CD1 female mice; conditions: 0.3 mg/kg in NH4Ac buffer, plasma levels by cell-based reporter gene assay; for half-life: female, CD1, sc
Experimental: Lipid conjugated relaxin or other therapeutic agents were dosed in mice using sc, po, iv dosing. Plasma levels of TA were determined by LGR7 activation at different time points (e.g., i.v. PK 5 min, 0.5h, 1h, 2h 4h, 8h, 24h, 48h).

in vivo = conditions: female, Dahl salt sensitive (DSS), rat, plasma, sc, 0.3 mg/kg
Experimental: To ensure accurate determination of active relaxins, plasma samples collected at intervals between 0-24 hrs were analyzed using the cell-based reporter gene assay.
Bioanalysis: Serum samples were diluted (1:100) in 5 point serial dilutions (1:3) and measured RXFP1 luciferase reporter activity following assay protocol. Injected peptide were used as a standard to get standard curve and obtained parameters for Bottom, Top, EC50, Hill Slope. Obtained activity values (RLU) were selected (in the linear range of the standard curve) were used to calculate the concentrations in plasma (nmol/L) using equation from standard curve (Y=Bottom+(Top-Bottom)/(1+10̂((Log IC50−X)*Hill Slope))

[2] = biological target: T2, LGR7 (relaxin 2 receptor), recombinant, …; experiment: cell-based or functional assay

Row | Molecule | Activity, fold drop compared to relaxin (LGR7) | half-life [1] [h] | Activity, fold drop compared to relaxin [2] [fold] | LGR7 EC50 (pM), CRE-Luc reporter in HEK293T cells expressing LGR7 [2] [pM] | other results
1 | CC[C@H](C)[C@@H]1NC(=O)[C@H](C)NC(=O)[C@H]([C@@H](C)CC)NC(=O)[C@H](CCC(N)=O)NC(=O)[C@H](C)NC(=O)[C@H](CCCNC(=N)N)NC(=O)[C@H](C(C)C)NC(=O)[C@H](CC(C)C)NC(=O)[C@H](CCC(=O)O)NC(=O)[C@H](CCCNC(=N)N)NC(=O)CNC(=O)[C@@H](NC(=O)[C@H](CC(C)C)NC(=O)[C@H](CCCCN)NC(=O)[C@@H](NC(=O)[C@@H](NC(=O)[C@H](CCC(=O)O)NC(=O)[C@H](CCC(=O)O)NC(=O)[C@H](CCSC)NC(=O)[C@H](Cc2c[nH]c3ccccc23)NC(=O)[C@H](CO)NC(=O)[C@H](C)N)C(C)C)[C@@H](C)CC)CSSC[C@@H]2NC(=O)[C@@H](NC(=O)[C@H](CCCCN)NC(=O)[C@H](CC(N)=O)NC(=O)[C@H](C)NC(=O)[C@H](CC(C)C)NC(=O)[C@H](C)NC(=O)[C@H](CO)NC(=O)[C@H](Cc3ccc(O)cc3)NC(=O)[C@H](CSCC(=O)NCCOCCOCCOCCOCCOCCOCCOCCOCCC(=O)NCCCC[C@H](NC(=O)CCCCCCCCCCCCCCCCC(=O)O)C(=O)O)NC(=O)[C@@H](N)CCC(N)=O)CSSC[C@H](NC(=O)CNC(=O)[C@H](C(C)C)NC(=O)[C@H](Cc3c[nH]cn3)NC2=O)C(=O)N[C@@H]([C@@H](C)O)C(=O)N[C@@H](CCCCN)C(=O)N[C@@H](CCCNC(=N)N)C(=O)N[C@@H](CO)C(=O)N[C@@H](CC(C)C)C(=O)N[C@@H](C)C(=O)N[C@@H](CCCNC(=N)N)C(=O)N[C@@H](Cc2ccccc2)C(=O)N[C@H](C(=O)O)CSSC[C@@H](C(=O)NCC(=O)N[C@@H](CCSC)C(=O)N[C@@H](CO)C(=O)N[C@H](C(=O)N[C@@H](Cc2c[nH]c3ccccc23)C(=O)N[C@@H](CO)C(=O)O)[C@@H](C)O)NC1=O [compound 8] | 8 | 9.5 | – | – | –
2 | I: ASWMEEVIKLCGRELVRAQIAICGMSTWS / II: QC(X2)YSALANKCCHVGCTKRSLARFC (disulfide I:11-II:11, I:23-II:24, II:10-II:15) [compound 3] | 12 | 6 | – | – | EC50 (LGR7): 0.21 nM
3 | I: ASWMEEVIKLCGRELVRAQIAICGMSTWS / II: QC(X3)YSALANKCCHVGCTKRSLARFC (disulfide I:11-II:11, I:23-II:24, II:10-II:15) [compound 9] | 10 | 3.4 | – | – | –
4 | I: ASWMEEVIKLCGRELVRAQIAICGMSTWS / II: QC(X4)YSALANKCCHVGCTKRSLARFC (disulfide I:11-II:11, I:23-II:24, II:10-II:15) [compound 7] | 2 | 8 | – | – | –
5 | I: ASWMEEVIKLCGRELVRAQIAICGMSTWS / II: QLYSALANKCCHC(X1)GCTKRSLARFC (disulfide I:11-II:11, I:23-II:24, II:10-II:15) [compound 2] | 15 | 8 | – | – | –
6 | I: H-ASWMEEVIKLCGRELVRAQIAICGMSTWS / II: H-QC(X1)YSALANKCCHVGCTKRSLARFC (disulfide I:11-II:11, I:23-II:24, II:10-II:15) [compound 1] | 12 | 8 | – | – | EC50 (LGR7): 0.21 nM
7 | I: H-ASWMEEVIKLCGRELVRAQIAICGMSTWS / II: [pGlu]C(X1)YSALANKCCHVGCTKRSLARFC (disulfide I:11-II:11, I:23-II:24, II:10-II:15) [compound 5] | 12 | – | – | – | half-life (in vivo): 16 h
8 | Relaxin-B:D1A (chain 1 ASWMEEVIKLCGRELVRAQIAICGMSTWS; chain 2 QLYSALANKCCHVGCTKRSLARFC) [unconjugated relaxin analog with D1A substitution in the B chain] | – | – | – | – | Half-life (mouse, sc) [1]: 0.8 h
9 | Relaxin-wt [reference compound] | – | – | – | – | Half-life (mouse, sc) [1]: 0.7 h
10 | B1 | – | – | 1 | 45 | –
11 | B2 | – | – | 12 | 210 | –
12 | B3 | – | – | 1 | ~40 | –
13 | B4 | – | – | 8 | 174 | –
14 | B5 | – | – | 10 | 235 | –
15 | B6 | – | – | 15 | 250 | –
16 | B7 | – | – | 2 | 51 | –
17 | B8 | – | – | 1 | 17 to 50 | –
18 | B9 | – | – | 12 | 350 | –
19 | B10 | – | – | 12 | 210 | –
